Here are results for two substances from PMC2912450.

What is called Kd is a measure of binding affinity in units of concentration. Read a low Kd as higher affinity.

The target in the experiment is His-tagged FliK (Salmonella) (UniProt P26416). The experiment in a line: SPR.

The substance FlhBc(P270A) (domain or fragment) registered a Kd of 1.6 µM.
As for FlhBc(N269A) (domain or fragment), the Kd came out at 10.5 µM.
